The target in assay [1] is T1, LRP6E3E4_O75581_631-1246 (Homo sapiens (Human), UniProt O75581 631-1246, biotinylated in the BLI/SPR assays (C-terminal biotin acceptor peptide)).
T1 construct: The entry holds residues 631-1246 of UniProt O75581 followed by a biotin acceptor peptide and eight His; For crystals the complex was treated with carboxypeptidase A and B
T1 sequence: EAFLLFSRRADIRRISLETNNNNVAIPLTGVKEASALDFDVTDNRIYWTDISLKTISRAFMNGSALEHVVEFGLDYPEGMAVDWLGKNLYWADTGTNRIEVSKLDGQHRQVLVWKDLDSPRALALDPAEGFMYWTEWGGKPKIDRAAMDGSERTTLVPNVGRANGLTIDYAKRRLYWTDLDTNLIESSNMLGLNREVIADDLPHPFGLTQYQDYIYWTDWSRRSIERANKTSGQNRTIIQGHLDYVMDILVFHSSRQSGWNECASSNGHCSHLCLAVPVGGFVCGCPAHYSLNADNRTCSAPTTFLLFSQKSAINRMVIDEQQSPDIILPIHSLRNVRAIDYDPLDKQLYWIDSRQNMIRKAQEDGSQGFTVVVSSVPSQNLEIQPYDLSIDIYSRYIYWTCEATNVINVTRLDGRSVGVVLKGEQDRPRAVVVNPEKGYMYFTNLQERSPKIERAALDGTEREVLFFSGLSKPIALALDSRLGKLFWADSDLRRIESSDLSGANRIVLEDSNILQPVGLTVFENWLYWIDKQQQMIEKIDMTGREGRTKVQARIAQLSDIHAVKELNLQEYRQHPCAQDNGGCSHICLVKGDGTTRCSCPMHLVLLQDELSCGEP
Nature of the assay: Octet BLI or BIAcore SPR.

Assay [2] deals with T1, LRP6E3E4_O75581_631-1246. Nature of the assay: Octet BLI, affinity class. The method, then:
(§1) Binding kinetics of antibody fragments to LRP5 extracellular domain (LRP5 ECD) and/or LRP6 extracellular domain (LRP6 ECD) protein targets was determined by bio-layer interferometry (BLI) using Octet Red 96 (PALL ForteBio, Fremont, Calif.) instruments at 30° C., 1000 rpm with streptavidin (SA) biosensors. C-terminal biotinylated LRP ECD recombinant protein was diluted to 20 nM in the running buffer (PBS, 0.05% Tween-20, 0.5% BSA, pH 7.2) and captured to the SA biosensor until coupling length reached 0.2 nm. Following capture of the LRP5 or LRP6, the SA biosensor with captured biotinylated-LRP5 or biotinylated LRP6 was dipped into wells containing the relevant antibody fragment at […] (0, 1.37, 4.12, 12.4, 37, 111.1, 333.3, 1000 nM) in running buffer, plus a well with only running buffer as a reference channel. KD was determined by global fitting, 1:1 binding model according to manufacturer recommended settings.

Another assay addresses T2, biotinylated-LRP6 CRD (UniProt O75581 631-1246, limits assumed, biotinylated).
T2 construct: LRP6 has no CRD
T2 sequence (looked up): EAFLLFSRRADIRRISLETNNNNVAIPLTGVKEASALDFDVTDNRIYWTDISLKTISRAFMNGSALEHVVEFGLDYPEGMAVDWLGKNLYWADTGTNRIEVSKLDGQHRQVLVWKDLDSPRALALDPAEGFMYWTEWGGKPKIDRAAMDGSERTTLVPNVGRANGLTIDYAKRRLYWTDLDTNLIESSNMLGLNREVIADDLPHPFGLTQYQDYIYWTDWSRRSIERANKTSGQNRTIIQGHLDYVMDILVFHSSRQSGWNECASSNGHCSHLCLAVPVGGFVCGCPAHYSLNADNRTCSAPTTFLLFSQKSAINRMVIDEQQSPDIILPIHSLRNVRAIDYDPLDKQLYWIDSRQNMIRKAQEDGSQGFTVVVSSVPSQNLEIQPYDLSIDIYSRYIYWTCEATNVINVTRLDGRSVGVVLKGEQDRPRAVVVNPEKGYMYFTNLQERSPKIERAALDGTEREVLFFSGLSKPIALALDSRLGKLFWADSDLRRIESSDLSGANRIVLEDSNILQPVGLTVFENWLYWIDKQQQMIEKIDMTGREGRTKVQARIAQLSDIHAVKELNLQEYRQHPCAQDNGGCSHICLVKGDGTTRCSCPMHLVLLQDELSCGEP
Nature of the assay: Octet BLI, biotinylated LRP6; wild type 009S-E04, not an alanine mutant. The procedure:
as §1
One antibody fragment, 009S-E04, was selected for alanine-scanning mutagenesis of CDRs, and the respective LRP6 binding affinities of the various mutants were determined by Octet BLI as described in Example 1.
Background: In BLI a coated tip is dipped into the sample, and binding shifts an interference pattern.

Assay [3] has as its target T1, LRP6E3E4_O75581_631-1246. Kind of assay: co-crystal structure, column Antigen. The procedure:
Structure of Lrp6E3E4:VHH/Fab complexes were determined by molecular replacement method using Phaser [Phaser crystallographic software. A. J. McCoy, R. W. Grosse-Kunstleve, P. D. Adams, M. D. Winn, L. C. Storoni, and R. J. Read. J Appl Crystallogr 40, 658-674 (2007)] with published structures Lrp6E3E4 [PDB code: 4AOP; Chen S, Bubeck D, MacDonald B T, Liang W X, Mao J H, Malinauskas T, Llorca O, Aricescu A R, Siebold C, He X, Jones E Y. Dev. Cell 21 848-61 (2011)] and a VHH or sdAb [PDB code: 6B20, chain E; Gulati S, Jin H, Masuho I, Orban T, Cai Y, Pardon E, Martemyanov K A, Kiser P D, Stewart P L, Ford C P, Steyaert J, Palczewski K. Nat Commun 91996 (2018)], followed by refinement and validation by MolProbity as implemented in Phenix [PHENIX: a comprehensive Python-based system for macromolecular structure solution. P. D. Adams, P. V. Afonine, G. Bunkoczi, V. B. Chen, I. W. Davis, N. Echols, J. J. Headd, L. W. Hung, G. J. Kapral, R. W. Grosse-Kunstleve, A. J. McCoy, N. W. Moriarty, R. Oeffner, R. J. Read, D. C. Richardson, J. S. Richardson, T. C. […]
Diffraction quality crystals of Lrp6E3E4:VHH36 (concentration=14.0 mg/mL) were obtained by grid-screen optimization in a condition containing 1.6 M ammonium sulfate and 0.1 M Tris pH 8.2. […] Structure of Lrp6E3E4:VHH36 complex was determined at a resolution of 2.70 Å, and refined to Rcryst and Rfree factors of 18.6% and 22.8%, respectively.

Where only a bound is given, the exact number is not on record here.

B1: 009S-E04 (VHH)
VHH: DVQLVESGGGLVQAGGSLRLACAGSGRIFAIYDIAWYRHPPGNQRELVAMIRPVVTEIDYADSVKGRFTISRNNAMKTVYLQMNNLKPEDTAVYYCNAKRPWGSRDEYWGQGTQVTVSS
A word on the Kd: it is a measure of binding affinity in units of concentration. A higher Kd goes with lower affinity. Consider B1, for which the results for the Kd with LRP6E3E4_O75581_631-1246 [1], with LRP6E3E4_O75581_631-1246 [2] and with biotinylated-LRP6 CRD were under 500 nM, under 500 nM and under 100 nM, respectively.

B2: VHH36 (013S-D05) (VHH)
VHH: QVKLEESGGGLVQAGGSLRLSCAASGRIFSIYDMGWFRQAPGKEREFVSGIRWSGGTSYADSVKGRFTISKDNAKNTIYLQMNNLKAEDTAVYYCGSRGYWGQGTLVTVSS
modifications: Gln1 modified as pyroglutamate (in the crystal structure)
notes: Construct of the crystal structure, with C-terminal GSGSG-His6; the complex was treated with carboxypeptidase A and B before crystallisation
B2: the binding result in the assay with LRP6E3E4_O75581_631-1246 [3] is recorded as “binds”.

(Values after US20210079089A1 (SURROZEN OPERATING, published 2021).)
